How the values were obtained:
[1] = biological target: T1, chymase (native, human skin mast cell) (Homo sapiens, UniProt P23946 P23946:22-247); assay: inhibition; angiotensin I substrate; settings: tags: Calbiochem Human Skin
T1 sequence: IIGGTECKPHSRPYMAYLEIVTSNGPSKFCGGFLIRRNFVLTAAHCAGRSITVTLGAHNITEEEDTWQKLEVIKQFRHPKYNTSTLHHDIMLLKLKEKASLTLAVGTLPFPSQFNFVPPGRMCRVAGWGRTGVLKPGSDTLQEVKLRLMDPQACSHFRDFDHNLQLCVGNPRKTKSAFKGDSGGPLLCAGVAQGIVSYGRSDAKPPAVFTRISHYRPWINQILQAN
Description: (§1) The total volume of solution for an enzyme reaction in the assay was set to 50 μL, and the reaction was performed in solution C buffer. At first, native (manufactured by Calbiochem) was diluted with solution C to give 5 μL thereof. Here, the native is chymase purified from human skin mast cell. The nucleic acid was serially diluted with solution C at a concentration of 0.0027-2 μM to give 25 μL thereof. The chymase solution (5 μL) and the nucleic acid solution (25 μL) were mixed, and the mixture was incubated at 37° C. for 5 min. On the other hand, […] angiotensin I (manufactured by PEPTIDE […], INC.) was prepared in solution C to give 20 μL thereof, which was incubated at 37° C. for 5 min. The angiotensin I solution was added to a mixture of chymase and nucleic acid to start an enzyme reaction. The final chymase concentration of the reaction solution was 0.5 nM, and the final substrate concentration was 50 μM. After reaction at 37° C. for 90 min, ice-cooled 30% trichloroacetic acid solution (25 μL) was added to quench the reaction. The whole mixture was centrifuged at 4° C., 14000 rpm for 10 min, and the supernatant (30 μL) was used for the next fluorescence induction reaction.
(§2) The above-mentioned supernatant (30 μL) was added to a 96 well plate (black, manufactured by Costar), a solution (15 μL) of 2% o-phthalaldehyde (manufactured by SIGMA) in methanol and 0.3M NaOH solution (170 μL) were added to each well, and the mixture was incubated at room temperature for 10 min. Then, 3M HCl solution (25 μL) was added to quench the reaction. The plate was set on a microplate reader SpectraMax190 (manufactured by Molecular device) and the fluorescence intensity was measured at an excitation wavelength of 355 nm and a fluorescence wavelength of 460 nm.
The nucleic acids of SEQ ID NO: 11-20 were all produced by chemical synthesis. In the evaluation of SEQ ID NO: 11-20, a method similar to the evaluation method of inhibitory activity against chymase shown in Example 1 by using angiotensin I as a substrate was used for measurement. […] The IC₅₀ value is a mean of 2 or 3 measurements.

[2] = biological target: T1, chymase (native, human skin mast cell); assay: inhibition; angiotensin I substrate; settings: tags: Calbiochem Human Skin; remark: listed apart in the source
Description: as §1, §2
All nucleic acids of SEQ ID NO: 33(1)-33(18) were prepared by chemical synthesis. The aptamers shown by these sequences were measured by a method similar to the inhibitory activity evaluation method for chymase inhibitory activity shown in Example 1 by using angiotensin I as a substrate. In the Table, the IC₅₀ value is a mean of 2 or 3 measurements.

B1: SEQ ID NO: 19 (ssRNA)
RNA: AUCGGACAUAACAUUGUUGGGGUGUCAA
modifications: 2'-F pyrimidines (U, C); purines 2'-OH
[1]
  IC50: 14.4 nM

B2: SEQ ID NO: 15 (ssRNA)
RNA: GAUGAUCGGACAUAACAUUGUUGGGGUGUCAAGCC
modifications: 2'-F pyrimidines (U, C); purines 2'-OH
[1]
  IC50: 1.4 nM

B3: SEQ ID NO: 33(6) (mixed)
RNA: AUGAUCGGACAUAACUAAUUAGGGGUGUCAA
modifications: idT-A(M)U(M)G(M)A(M)U(F)C(F)G(M)G(M)A(M)C(F)A(M)U(M)AAC(M)U(F)A(M)A(M)U(M)U(M)A(M)G(M)GG(M)G(M)TG(M)U(M)C(M)A(M)A(M)-idT (F=2'-F, M=2'-OMe)
[2]
  IC50: 0.053 nM

B4: SEQ ID NO: 33(12) (mixed)
RNA: AUGAUCGGACAUAACUAAUUAGGGGUGUCAA
modifications: idT-A(M)U(M)G(M)A(M)U(F)C(F)G(M)G(M)A(M)C(M)A(M)U(M)AAC(M)U(F)A(M)A(M)U(M)TA(M)G(M)GG(M)G(M)TG(M)U(M)C(M)A(M)A(M)-idT (F=2'-F, M=2'-OMe)
[2]
  IC50: 0.048 nM

B5: SEQ ID NO: 33(16) (mixed)
RNA: AUGAUCGGACAUAACUAAUUAGGGGUGUCAA
modifications: idT-A(M)U(M)G(M)A(M)U(F)C(F)G(M)G(M)A(M)C(M)A(M)U(M)AAC(M)U(F)A(M)A(M)U(M)U(M)A(M)G(M)GG(M)G(M)T(M)G(M)U(M)C(M)A(M)A(M)-idT (F=2'-F, M=2'-OMe)
[2]
  IC50: 0.063 nM

B6: SEQ ID NO: 33(7) (mixed)
RNA: AUGAUCGGACAUAACUAAUUAGGGGUGUCAA
modifications: idT-A(M)U(M)G(M)A(M)U(F)C(F)G(M)G(M)A(M)C(M)A(M)U(M)A(M)AC(M)U(F)A(M)A(M)U(M)U(M)A(M)G(M)GG(M)G(M)TG(M)U(M)C(M)A(M)A(M)-idT (F=2'-F, M=2'-OMe)
[2]
  IC50: 0.071 nM

B7: SEQ ID NO: 33(8) (mixed)
RNA: AUGAUCGGACAUAACUAAUUAGGGGUGUCAA
modifications: idT-A(M)U(M)G(M)A(M)U(F)C(F)G(M)G(M)A(M)C(M)A(M)U(M)AA(M)C(M)U(F)A(M)A(M)U(M)U(M)A(M)G(M)GG(M)G(M)TG(M)U(M)C(M)A(M)A(M)-idT (F=2'-F, M=2'-OMe)
[2]
  IC50: 0.061 nM

B8: SEQ ID NO: 33(10) (mixed)
RNA: AUGAUCGGACAUAACUAAUUAGGGGUGUCAA
modifications: idT-A(M)U(M)G(M)A(M)U(F)C(F)G(M)G(M)A(M)C(M)A(M)U(M)AAC(M)TA(M)A(M)U(M)U(M)A(M)G(M)GG(M)G(M)TG(M)U(M)C(M)A(M)A(M)-idT (F=2'-F, M=2'-OMe)
[2]
  IC50: 0.071 nM

B9: SEQ ID NO: 33(13) (mixed)
RNA: AUGAUCGGACAUAACUAAUUAGGGGUGUCAA
modifications: idT-A(M)U(M)G(M)A(M)U(F)C(F)G(M)G(M)A(M)C(M)A(M)U(M)AAC(M)T(M)A(M)A(M)U(M)U(M)A(M)G(M)GG(M)G(M)TG(M)U(M)C(M)A(M)A(M)-idT (F=2'-F, M=2'-OMe)
[2]
  IC50: 0.069 nM

B10: SEQ ID NO: 33(17) (mixed)
RNA: AUGAUCGGACAUAACUAAUUAGGGGUGUCAA
modifications: idT-A(PHE)U(M)G(M)A(M)U(F)C(F)G(M)G(M)A(M)C(M)A(M)U(M)AAC(M)U(F)A(M)A(M)U(M)U(M)A(M)G(M)GG(M)G(M)TG(M)U(M)C(M)A(M)A(M)-idT (F=2'-F, M=2'-OMe, PHE=8-(propyl)phenyl-rA)
[2]
  IC50: 0.038 nM

B11: SEQ ID NO: 33(11) (mixed)
RNA: AUGAUCGGACAUAACUAAUUAGGGGUGUCAA
modifications: idT-A(M)U(M)G(M)A(M)U(F)C(F)G(M)G(M)A(M)C(M)A(M)U(M)AAC(M)U(F)A(M)A(M)TU(M)A(M)G(M)GG(M)G(M)TG(M)U(M)C(M)A(M)A(M)-idT (F=2'-F, M=2'-OMe)
[2]
  IC50: 0.051 nM

B12: SEQ ID NO: 33(14) (mixed)
RNA: AUGAUCGGACAUAACUAAUUAGGGGUGUCAA
modifications: idT-A(M)U(M)G(M)A(M)U(F)C(F)G(M)G(M)A(M)C(M)A(M)U(M)AAC(M)U(F)A(M)A(M)T(M)U(M)A(M)G(M)GG(M)G(M)TG(M)U(M)C(M)A(M)A(M)-idT (F=2'-F, M=2'-OMe)
[2]
  IC50: 0.075 nM

B13: SEQ ID NO: 33(15) (mixed)
RNA: AUGAUCGGACAUAACUAAUUAGGGGUGUCAA
modifications: idT-A(M)U(M)G(M)A(M)U(F)C(F)G(M)G(M)A(M)C(M)A(M)U(M)AAC(M)U(F)A(M)A(M)U(M)T(M)A(M)G(M)GG(M)G(M)TG(M)U(M)C(M)A(M)A(M)-idT (F=2'-F, M=2'-OMe)
[2]
  IC50: 0.072 nM

From patent publication US20210002644, “ANTI-CHYMASE APTAMER AND USE FOR SAME” (RIBOMIC INC., published 2021)
